From publication PMC12748766, “Structural basis for human chondroitin sulfate chain polymerization” (Nature Communications, 2025)
Positions count from the first letter of the chain named.

What was measured:
Test in all cases: mass photometry; Refeyn OneMP; purified complexes diluted in 20 mM MES pH 6.5, 150 mM NaCl to around 25 nM
Details in all cases: both partners purified
[1] = target: T1, CHSY3^D718N/D720N, secreted construct aa157-aa882 (human, UniProt Q70JA7 157-882, D718N | D720N)
T1 construct: CHSY3, human, UniProt Q70JA7, residues 157-882, mutations in the DxD motif of the C-terminal GT domain; source: Freestyle 293-F cells, co-transfected with CHPF, secreted; purified by the same protocol as the wild-type complexes; not shown: SUMO, N-terminal, cleaved; His6, N-terminal, cleaved
T1 sequence (looked up): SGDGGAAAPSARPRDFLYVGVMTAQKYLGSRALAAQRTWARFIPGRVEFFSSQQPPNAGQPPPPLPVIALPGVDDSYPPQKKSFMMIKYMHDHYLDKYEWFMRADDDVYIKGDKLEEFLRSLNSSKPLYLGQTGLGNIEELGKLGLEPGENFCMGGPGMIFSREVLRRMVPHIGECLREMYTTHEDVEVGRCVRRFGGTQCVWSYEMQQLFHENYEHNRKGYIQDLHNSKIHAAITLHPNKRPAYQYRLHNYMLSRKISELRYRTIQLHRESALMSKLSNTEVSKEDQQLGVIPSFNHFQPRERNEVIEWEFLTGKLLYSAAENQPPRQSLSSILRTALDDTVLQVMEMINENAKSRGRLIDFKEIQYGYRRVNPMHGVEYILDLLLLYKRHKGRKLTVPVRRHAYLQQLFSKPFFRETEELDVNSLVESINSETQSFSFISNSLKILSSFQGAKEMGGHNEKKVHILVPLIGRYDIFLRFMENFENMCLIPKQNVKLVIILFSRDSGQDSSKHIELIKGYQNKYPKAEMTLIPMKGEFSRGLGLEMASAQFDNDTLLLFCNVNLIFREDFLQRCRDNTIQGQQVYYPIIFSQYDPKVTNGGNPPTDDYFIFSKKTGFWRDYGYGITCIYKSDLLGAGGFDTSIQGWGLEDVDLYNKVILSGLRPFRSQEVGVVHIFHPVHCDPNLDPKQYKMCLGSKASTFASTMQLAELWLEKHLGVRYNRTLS

[2] = target: T2, Chondroitin Sulfate Synthase-1 (CHSY1), secreted N-terminally truncated construct aa68-aa802 (human, UniProt Q86X52 68-802)
T2 construct: CHSY1, human, UniProt Q86X52, residues 68-802 (membrane-spanning helix removed); Construct in pHR-CMV-TetO2 with an N-terminal chicken RPTP sigma signal peptide, SUMO, 6x His and a 3C site; no cleavage site before the C-terminal Avi tag; source: Freestyle 293-F cells, co-transfected, secreted; purified from the supernatant (HisTrap, 3C protease, second HisTrap); not shown: SUMO, N-terminal, …
T2 sequence (looked up): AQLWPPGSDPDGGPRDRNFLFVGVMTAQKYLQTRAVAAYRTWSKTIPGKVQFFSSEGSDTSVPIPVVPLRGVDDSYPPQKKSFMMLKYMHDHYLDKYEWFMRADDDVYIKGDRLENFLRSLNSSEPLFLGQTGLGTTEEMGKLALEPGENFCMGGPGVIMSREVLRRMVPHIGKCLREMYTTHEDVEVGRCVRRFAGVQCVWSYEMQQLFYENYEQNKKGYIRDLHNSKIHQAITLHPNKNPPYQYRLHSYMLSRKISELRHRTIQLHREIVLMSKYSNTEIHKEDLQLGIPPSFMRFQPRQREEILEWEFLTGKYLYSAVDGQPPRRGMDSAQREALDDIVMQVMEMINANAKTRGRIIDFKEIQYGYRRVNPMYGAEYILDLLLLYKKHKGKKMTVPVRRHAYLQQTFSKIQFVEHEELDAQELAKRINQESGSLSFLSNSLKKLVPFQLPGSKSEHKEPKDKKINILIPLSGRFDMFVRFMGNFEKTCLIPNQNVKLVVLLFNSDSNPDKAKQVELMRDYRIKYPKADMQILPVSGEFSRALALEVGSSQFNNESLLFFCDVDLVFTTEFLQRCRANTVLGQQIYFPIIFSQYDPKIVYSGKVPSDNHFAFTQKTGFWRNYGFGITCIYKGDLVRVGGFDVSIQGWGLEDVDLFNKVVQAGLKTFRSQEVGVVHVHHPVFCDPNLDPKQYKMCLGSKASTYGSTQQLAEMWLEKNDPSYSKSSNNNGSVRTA

[3] = target: T3, CHSY3^H831A, secreted construct aa157-aa882 (human, UniProt Q70JA7 157-882, H831A)
T3 construct: CHSY3, human, UniProt Q70JA7, residues 157-882, mutation in the C-terminal GT domain; source: Freestyle 293-F cells, co-transfected with CHPF, secreted; purified by the same protocol as the wild-type complexes; not shown: SUMO, N-terminal, cleaved; His6, N-terminal, cleaved
T3 sequence (looked up): T1 sequence (looked up) with N562D, N564D, H675A

Measured: binding result

B1: Chondroitin Polymerizing Factor (CHPF), secreted N-terminally truncated construct aa81-aa775 (domain or fragment, human, UniProt Q8IZ52 81-775, looked up)
chain: GENWEPRVLPYHPAQPGQAAKKAVRTRYISTELGIRQRLLVAVLTSQTTLPTLGVAVNRTLGHRLERVVFLTGARGRRAPPGMAVVTLGEERPIGHLHLALRHLLEQHGDDFDWFFLVPDTTYTEAHGLARLTGHLSLASAAHLYLGRPQDFIGGEPTPGRYCHGGFGVLLSRMLLQQLRPHLEGCRNDIVSARPDEWLGRCILDATGVGCTGDHEGVHYSHLELSPGEPVQEGDPHFRSALTAHPVRDPVHMYQLHKAFARAELERTYQEIQELQWEIQNTSHLAVDGDQAAAWPVGIPAPSRPASRFEVLRWDYFTEQHAFSCADGSPRCPLRGADRADVADVLGTALEELNRRYHPALRLQKQQLVNGYRRFDPARGMEYTLDLQLEALTPQGGRRPLTRRVQLLRPLSRVEILPVPYVTEASRLTVLLPLAAAERDLAPGFLEAFATAALEPGDAAAALTLLLLYEPRQAQRVAHADVFAPVKAHVAELERRFPGARVPWLSVQTAAPSPLRLMDLLSKKHPLDTLFLLAGPDTVLTPDFLNRCRMHAISGWQAFFPMHFQAFHPAVAPPQGPGPPELGRDTGRFDRQAASEACFYNSDYVAARGRLAAASEQEEELLESLDVYELFLHFSSLHVLRAVEPALLQRYRAQTCSARLSEDLYHRCLQSVLEGLGSRTQLAMLLFEQEQGNST
notes: CHPF, human, UniProt Q8IZ52, residues 81-775 (membrane-spanning helix removed); Construct in pHR-CMV-TetO2 with an N-terminal chicken RPTP sigma signal peptide, SUMO, 6x His and a 3C site; a second 3C site stands before the C-terminal twin streptavidin tag; also called Chondroitin sulfate synthase 2; source: Freestyle 293-F cells, co-transfected, secreted; purified from the supernatant (HisTrap, …)
binds: all assays above
